FireProtDB (doi:10.1016/j.bbapap.2014.10.010)

B1: Alanine--glyoxylate aminotransferase, P21549 (parent)
chain: MASHKLLVTPPKALLKPLSIPNQLLLGPGPSNLPPRIMAAGGLQMIGSMSKDMYQIMDEIKEGIQYVFQTRNPLTLVISGSGHCALEAALVNVLEPGDSFLVGANGIWGQRAVDIGERIGARVHPMTKDPGGHYTLQEVEEGLAQHKPVLLFLTHGESSTGVLQPLDGFGELCHRYKCLLLVDSVASLGGTPLYMDRQGIDILYSGSQKALNAPPGTSLISFSDKAKKKMYSRKTKPFSFYLDIKWLANFWGCDDQPRMYHHTIPVISLYSLRESLALIAEQGLENSWRQHREAAAYLHGRLQALGLQLFVKDPALRLPTVTTVAVPAGYDWRDIVSYVIDHFDIEIMGGLGPSTGKVLRIGLLGCNATRENVDRVTEALRAALQHCPKKKL

Variants of: B1
Conditions: Homo sapiens; pH 7.4; Thermal; DSC; Hepes 20 mM; NaCl 200 mM; transition: 2; reversible: No; structure 1H0C; whole UniProt chain shown

| Variant | Tm | change of melting temperature, mutant - wild type (higher = more stable) | unfolding enthalpy (calorimetric) |
| --- | --- | --- | --- |
| MASHKLLVTPPKALLKPLSIPNQLLLGPGPSNLPPRIMAAGGLQMIGSMSKDMYQIMDEIKEGIQYVFQTRNPLTLVISGSGHCALEAALVNVLEPGDSFLVGANGIWGQRAADIGERIGARVHPMTKDPGGHYTLQEVEEGLAQHKPVLLFLTHGESSTGVLQPLDGFGELCHRYKCLLLVDSVASLGGTPLYMDRQGIDILYSGSQKALNAPPGTSLISFSDKAKKKMYSRKTKPFSFYLDIKWLANFWGCDDQPRMYHHTIPVISLYSLRESLALIAEQGLENSWRQHREAAAYLHGRLQALGLQLFVKDPALRLPTVTTVAVPAGYDWRDIVSYVIDHFDIEIMGGLGPSTGKVLRIGLLGCNATRENVDRVTEALRAALQHCPKKKL [V113A] | 83.2 °C | 13.2 °C | 502 kcal/mol |
| MASHKLLVTPPKALLKPLSIPNQLLLGPGPSNLPPRIMAAGGLQMIGSMSKEMYQIMDEIKEGIQYVFQTRNPLTLVISGSGHCALEAALVNVLEPGDSFLVGANGIWGQRAVDIGERIGARVHPMTKDPGGHYTLQEVEEGLAQHKPVLLFLTHGESSTGVLQPLDGFGELCHRYKCLLLVDSVASLGGTPLYMDRQGIDILYSGSQKALNAPPGTSLISFSDKAKKKMYSRKTKPFSFYLDIKWLANFWGCDDQPRMYHHTIPVISLYSLRESLALIAEQGLENSWRQHREAAAYLHGRLQALGLQLFVKDPALRLPTVTTVAVPAGYDWRDIVSYVMDHFDIEIMGGLGPSTGKVLRIGLLGCNATRENVDRVTEALRAALQHCPKKKL [D52E I340M] | 86.9 °C | 16.9 °C | 573 kcal/mol |
| MASHKLLVTPPKALLKPLSIPNQLLLGPGPSNLPPRIMAAGGLQMIGSMSKDMYQIMDEIKEGIQYVFQTRNPLTLVISGSGHCALEAALVNVLEPGDSFLVGANGIWGQRAVDIGERIGARVHPMTKDPGGHYTLQEVEEGLAQHKPVLLFLTHGESSTGVLQPLDGFGELCHRYKCLLLVDSVASLGGTPLYMDRQGIDILYSGSQKALNAPPGTSLISFSDKAKKKMYSRKTKPFSFYLDIKWLANFWGCDDQPRMYHHTIPVISLYSLRESLALIAEQGLENSWRQHREAAAYLHGRLQALGLQLFVKDPALRLPTVTTVAVPAGYDWRDIVSYVMDHFDIEIMGGLGPSTGKVLRIGLLGCNATRENVDRVTEALRAALQHCPKKKL [I340M] | 84.1 °C | 14.1 °C | 530 kcal/mol |
